Experimental data from patent publication US20240317847A1 (Bayer, published 2024).

Columns and labels:
cynomolgus IL-11 [1] = target: T1, cynomolgus IL-11 (cynomolgus, UniProt P20808 22-199); assay: SPR (Biacore), 25 C, antibody captured via anti-Fc, IL-11 as analyte, determined in steady state; SPR at 25 C, determined in steady state
T1 construct: Invigate recombinant protein; also called cIL11; Macaca IL-11
T1 sequence: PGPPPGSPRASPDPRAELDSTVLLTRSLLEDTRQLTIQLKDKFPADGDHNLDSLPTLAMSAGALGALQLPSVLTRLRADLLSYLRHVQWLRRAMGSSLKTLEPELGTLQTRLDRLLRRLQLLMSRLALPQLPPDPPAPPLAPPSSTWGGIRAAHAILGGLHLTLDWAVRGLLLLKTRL
Experimental: (§1) To assess the binding kinetics and affinity of anti-IL-11 bispecific antibodies as well as their species cross-reactivity profile, binding assays were conducted using surface plasmon resonance (SPR). […] Antibodies were captured either via anti-human Fc IgGs (“Human antibody capture kit”, Order No. BR100839, Cytiva) or via anti-mouse Fc IgGs (“Mouse antibody capture kit, Order No. BR100383, Cytiva) covalently amine coupled to a Series S CM5 sensor chip (Cytiva) depending on the isotype. The amine coupling was carried out according to the manufacturer's instructions using 1-ethyl-3-(3-dimethylaminopropyl) carbodiimide hydrochloride (EDC), N-hydroxysuccinimide (NHS) and ethanolamine HCl, pH 8.5 (“Amine Coupling Kit” BR-1000-50, Cytiva.). Human, mouse, cynomolgus or rat IL-11 was used as analyte at several dilutions within the concentration range from 0.05-200 nM. For binding assays with only one concentration 200 nM IL-11 was used. The sensor surface was regenerated with glycine pH 1.7 after each antigen injection. Obtained sensorgrams were double referenced (subtraction of reference flow cell signal and buffer injection) and were fitted to a 1:1 Langmuir binding model to derive kinetic data using the Biacore T200 Evaluation software or the Biacore Insight software.
(§2) If no value is reported, there was either no binding or very low binding and multiphasic binding behavior.

rat IL-11 [2] = target: T2, rat IL-11 (rat, UniProt Q99MF5 22-199); assay: as above
T2 construct: Invigate recombinant protein; also called rIL11
T2 sequence: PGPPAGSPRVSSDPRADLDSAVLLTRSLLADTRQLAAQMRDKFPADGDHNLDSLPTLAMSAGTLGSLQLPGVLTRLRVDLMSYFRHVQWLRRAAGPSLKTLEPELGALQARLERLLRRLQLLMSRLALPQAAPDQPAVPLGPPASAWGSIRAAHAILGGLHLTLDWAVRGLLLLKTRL
Experimental: as §1, §2

human IL-11 [3] = target: T3, human IL-11 (human, UniProt P20809 22-199); assay: as above
T3 construct: Invigate recombinant protein; biotinylated when immobilized in the Di-complex ELISA; also called hIL11; hIL-11
T3 sequence: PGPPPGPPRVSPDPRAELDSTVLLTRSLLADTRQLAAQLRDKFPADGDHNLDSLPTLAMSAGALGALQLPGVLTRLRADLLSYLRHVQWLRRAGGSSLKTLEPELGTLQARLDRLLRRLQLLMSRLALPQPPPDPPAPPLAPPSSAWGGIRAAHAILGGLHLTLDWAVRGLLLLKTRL
Experimental: as §1, §2

rat IL-11 [4] = target: T4, rat IL-11 (rat, UniProt Q99MF5 22-199); assay: cell-based or functional assay
T4 sequence: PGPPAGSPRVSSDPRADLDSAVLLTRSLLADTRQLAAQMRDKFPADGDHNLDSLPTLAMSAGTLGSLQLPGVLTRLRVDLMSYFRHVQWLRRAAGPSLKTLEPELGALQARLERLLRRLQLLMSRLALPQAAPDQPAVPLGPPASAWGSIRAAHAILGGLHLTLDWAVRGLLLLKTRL

human IL-11 [5] = target: T5, human IL-11 (human, UniProt P20809 22-199); assay: cell-based or functional assay
T5 sequence: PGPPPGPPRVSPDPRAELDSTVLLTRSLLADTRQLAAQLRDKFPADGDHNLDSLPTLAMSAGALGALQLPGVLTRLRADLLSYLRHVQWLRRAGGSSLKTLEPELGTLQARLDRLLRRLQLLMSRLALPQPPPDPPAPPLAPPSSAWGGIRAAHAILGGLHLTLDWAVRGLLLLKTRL

cynomolgus IL-11 [6] = target: T6, cynomolgus IL-11 (cynomolgus, UniProt P20808 22-199); assay: cell-based or functional assay
T6 sequence: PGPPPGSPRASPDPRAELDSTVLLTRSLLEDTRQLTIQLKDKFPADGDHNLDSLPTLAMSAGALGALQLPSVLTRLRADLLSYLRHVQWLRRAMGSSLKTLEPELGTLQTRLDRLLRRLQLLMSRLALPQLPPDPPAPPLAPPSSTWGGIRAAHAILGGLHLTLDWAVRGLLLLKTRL

murine IL-11 = target: T7, murine IL-11 (mouse, UniProt P47873 22-199); assay: cell-based or functional assay
T7 sequence: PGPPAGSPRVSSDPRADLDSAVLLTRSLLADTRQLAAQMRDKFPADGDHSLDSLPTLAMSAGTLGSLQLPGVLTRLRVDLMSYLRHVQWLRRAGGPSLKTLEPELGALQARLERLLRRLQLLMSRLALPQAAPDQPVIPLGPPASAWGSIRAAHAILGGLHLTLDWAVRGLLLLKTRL

human IL-11 [7] = target: T3, human IL-11; assay: SPR (Biacore), 25 C, antibody captured via anti-Fc, IL-11 as analyte; SPR at 25 C
human IL-11 [8] = target: T3, human IL-11; assay: Tri-complex ELISA, hIL-11 + mIL-11Ra-Fc + hgp130-Fc, inhibition of complex formation; Tri-complex ELISA (IL-11/IL-11Ra/gp130 formation)
Experimental: In the Tri-complex ELISA format IL-11 antibodies are tested for their ability to inhibit the formation of a complex consisting of murine or human gp130-Fc fusion protein, with murine or human IL-11, and a murine IL11RA-Fc fusion protein. The assay format was adapted according to FIG. 18 (a, b), depending on whether murine or human IL-11 IgG antibodies were tested.
The assay was performed using High Binding microtiter plates (Greiner, #781077). In a first step, 25 μl of goat anti human IgG (Sigma, #12136), diluted 1:1000 in coating buffer (Candor, #121125) was coated on the plate at 4° C. overnight. Next day, the plate was washed one time with 50 μl PBST and then blocked with 50 μl SmartBlock (Candor, #113125) for one hour at room temperature (RT). […] After three additional washes of the coated and blocked microtiter plate with PBS-T, 25 μl of each mixture were added and the assay plate was incubated for one hour at room temperature. After three additional washes, anti-mouse-gp130 biotinylated antibody (R&D, #BAF468) or anti-human gp130 biotinylated antibody (R&D, #BAF228), both 1:1000 in 10% SmartBlock PBS-T, was added and incubated for 1 hour at RT. After three additional washes, a Streptavidin-Peroxidase conjugate (Sigma, #S5512) 1:1000 in SmartBlock PBS-T was added and incubated for one hour at room temperature. […] Then, the fluorescence was measured with a plate reader at 535/595 nm. […]

B1: TPP-18087 (antibody, mouse IgG1, V domains shown)
VH: EVQLLESGGGLVQPGGSLRLSCAASGFTFSHYDMNWLRQAPGKGLEWVGVISYDGSNKFYADFVKGRFTISRDNSKNTLYLQMNSLRAEDTAVYYCARTPGSHFDYWGQGTLVTVSS
VL: QSVLTQPPSASGTPGQRVTISCSGSSSNIGNNAVNWYQQLPGTAPKLLIYYDDLLPSGVPDRFSGSKSGTSASLAISGLRSEDEADYYCSAWDDSLNGVVFGGGTKLTVLG
notes: mIgG1, Lambda
Question: What does the source list for B1?
Answer: Kd (cynomolgus IL-11 [1]): 56 nM; Kd (rat IL-11 [2]): 34 nM; Kd (human IL-11 [3]): 13 nM

B2: TPP-18068 (antibody, mouse IgG1)
heavy: EVQLLESGGGLVQPGGSLRLSCAASGFTFSSYGMHWVRQAPGKGLEWVSVISYDGSYKYYADSVKGRFTISRDNSKNTLYLQMNSLRAEDTAVYYCAAGVPDYWGQGTLVTVSSAKTTPPSVYPLAPGSAAQTNSMVTLGCLVKGYFPEPVTVTWNSGSLSSGVHTFPAVLQSDLYTLSSSVTVPSSTWPSETVTCNVAHPASSTKVDKKIVPRDCGCKPCICTVPEVSSVFIFPPKPKDVLTITLTPKVTCVVVDISKDDPEVQFSWFVDDVEVHTAQTQPREEQFNSTFRSVSELPIMHQDWLNGKEFKCRVNSAAFPAPIEKTISKTKGRPKAPQVYTIPPPKEQMAKDKVSLTCMITDFFPEDITVEWQWNGQPAENYKNTQPIMDTDGSYFVYSKLNVQKSNWEAGNTFTCSVLHEGLHNHHTEKSLSHSPGK
light: QSVLTQPPSASGTPGQRVTISCTGSSSNIGAGYDVHWYQQLPGTAPKLLIYSNNERPSGVPDRFSGSKSGTSASLAISGLRSEDEADYYCAAWDDSLNGPVFGGGTKLTVLGQPKSSPSVTLFPPSSEELETNKATLVCTITDFYPGVVTVDWKVDGTPVTQGMETTQPSKQSNNKYMASSYLTLTARAWERHSSYSCQVTHEGHTVEKSLSRADCS
notes: mIgG1, Lambda
Question: With B2 as the binder, how does the “RGA Efficacy (%)” value (rat IL-11 [4]) read?
Answer: 94%

Question: What about the “RGA IC50” value (rat IL-11 [4]) of the same binder?
Answer: 1.8 nM

Question: And the “RGA Efficacy (%)” value (human IL-11 [5])?
Answer: 46.1%

Question: What about the “RGA IC50” value (human IL-11 [5]) of the same binder?
Answer: 6.5 nM

Question: What about the “RGA Efficacy (%)” value (cynomolgus IL-11 [6]) of the same binder?
Answer: 70%

Question: What about the “RGA IC50” value (cynomolgus IL-11 [6]) of the same binder?
Answer: 4.1 nM

Question: And the “RGA Efficacy (%)” value (murine IL-11)?
Answer: 93.6%

Question: What about the “RGA IC50” value (murine IL-11) of the same binder?
Answer: 1.2 nM

B3: TPP-18068 (antibody, mouse IgG1)
heavy: EVQLLESGGGLVQPGGSLRLSCAASGFTFSSYGMHWVRQAPGKGLEWVSVISYDGSYKYYADSVKGRFTISRDNSKNTLYLQMNSLRAEDTAVYYCAAGVPDYWGQGTLVTVSSAKTTPPSVYPLAPGSAAQTNSMVTLGCLVKGYFPEPVTVTWNSGSLSSGVHTFPAVLQSDLYTLSSSVTVPSSTWPSETVTCNVAHPASSTKVDKKIVPRDCGCKPCICTVPEVSSVFIFPPKPKDVLTITLTPKVTCVVVDISKDDPEVQFSWFVDDVEVHTAQTQPREEQFNSTFRSVSELPIMHQDWLNGKEFKCRVNSAAFPAPIEKTISKTKGRPKAPQVYTIPPPKEQMAKDKVSLTCMITDFFPEDITVEWQWNGQPAENYKNTQPIMDTDGSYFVYSKLNVQKSNWEAGNTFTCSVLHEGLHNHHTEKSLSHSPGK
light: QSVLTQPPSASGTPGQRVTISCTGSSSNIGAGYDVHWYQQLPGTAPKLLIYSNNERPSGVPDRFSGSKSGTSASLAISGLRSEDEADYYCAAWDDSLNGPVFGGGTKLTVLGQPKSSPSVTLFPPSSEELETNKATLVCTITDFYPGVVTVDWKVDGTPVTQGMETTQPSKQSNNKYMASSYLTLTARAWERHSSYSCQVTHEGHTVEKSLSRADCS
notes: mIgG1, Lambda
Question: Which Kd (human IL-11 [7]) does the source give for B3 here?
Answer: 25 nM

Question: What about the IC50 (human IL-11 [8]) of the same binder?
Answer: 1700 nM
